The text below walks through data of paper PMC11516053, “Genomic Amplification of TBC1D31 Promotes Hepatocellular Carcinoma Through Reducing the Rab22A‐Mediated Endolysosomal Trafficking and Degradation of EGFR” (Advanced Science, 2024).

In this experiment the target is T1, SFB-TBC1D31 (human, UniProt Q96DN5-1 1-1066).
T1 construct: In the SFB pull-down it was left on the streptavidin beads; in the GST pull-down it was eluted with biotin; source: HEK293T, transfected, purified (streptavidin-conjugated beads, eluted with biotin)
T1 sequence (looked up): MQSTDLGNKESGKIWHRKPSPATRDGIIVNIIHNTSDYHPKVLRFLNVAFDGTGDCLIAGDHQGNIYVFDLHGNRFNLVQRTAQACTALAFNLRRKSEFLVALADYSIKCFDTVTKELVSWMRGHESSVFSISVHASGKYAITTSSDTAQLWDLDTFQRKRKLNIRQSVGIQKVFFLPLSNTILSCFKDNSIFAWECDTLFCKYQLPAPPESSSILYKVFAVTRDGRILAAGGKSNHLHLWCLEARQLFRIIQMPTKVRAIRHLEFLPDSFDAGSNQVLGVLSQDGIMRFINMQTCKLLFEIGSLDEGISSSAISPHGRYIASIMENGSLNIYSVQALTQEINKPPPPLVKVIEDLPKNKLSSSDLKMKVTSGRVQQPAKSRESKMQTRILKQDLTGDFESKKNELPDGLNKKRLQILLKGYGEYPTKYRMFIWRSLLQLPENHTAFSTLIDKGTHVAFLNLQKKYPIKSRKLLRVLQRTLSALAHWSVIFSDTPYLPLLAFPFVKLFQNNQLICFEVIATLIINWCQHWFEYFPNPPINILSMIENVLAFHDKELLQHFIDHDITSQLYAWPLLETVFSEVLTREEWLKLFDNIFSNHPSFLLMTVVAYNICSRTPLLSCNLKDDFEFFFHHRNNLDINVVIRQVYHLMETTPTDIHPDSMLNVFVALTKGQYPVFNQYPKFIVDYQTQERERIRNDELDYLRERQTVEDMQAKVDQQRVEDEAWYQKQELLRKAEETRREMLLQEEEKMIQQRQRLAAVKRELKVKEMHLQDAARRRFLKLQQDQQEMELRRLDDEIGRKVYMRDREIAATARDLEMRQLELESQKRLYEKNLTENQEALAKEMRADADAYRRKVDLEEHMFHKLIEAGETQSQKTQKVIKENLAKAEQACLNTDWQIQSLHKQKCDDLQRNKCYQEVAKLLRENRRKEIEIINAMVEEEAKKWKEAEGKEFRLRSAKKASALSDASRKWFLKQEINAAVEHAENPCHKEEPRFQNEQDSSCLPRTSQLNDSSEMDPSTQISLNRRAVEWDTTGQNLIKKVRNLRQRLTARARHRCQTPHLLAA
Put plainly: pull-down; GST pull-down in vitro: GST-Rab22A on Glutathione-Sepharose incubated with eluted SFB-TBC1D31 in NETN buffer, 3 h, 4 °C; detection by Flag antibody. Particulars: both partners purified.

B1: GST-Rab22A (natural protein, human, UniProt Q9UL26 1-194, looked up)
chain: MALRELKVCLLGDTGVGKSSIVWRFVEDSFDPNINPTIGASFMTKTVQYQNELHKFLIWDTAGQERFRALAPMYYRGSAAAIIVYDITKEETFSTLKNWVKELRQHGPPNIVVAIAGNKCDLIDVREVMERDAKDYADSIHAIFVETSAKNAININELFIEISRRIPSTDANLPSGGKGFKLRRQPSEPKRSCC
notes: On glutathione beads in the GST pull-down; eluted with reduced glutathione for the SFB pull-down; source: E. coli BL21, purified (Glutathione-Sepharose)
In the case of B1, the binding result is reported as “binds”.
